Experimental data from patent US10654915B2, “Antibodies useful in passive influenza immunization” (priority 2011, dated 2020).
Several values for one entry are separate records, joined by “and”; a condition that tells them apart may be missing. Identical values can stand only once. Like-named read-outs stand apart in the source and are kept apart here.

How the values were obtained:
H1 HA = assay type: binding, influenza A; conditions: read-out: affinity
H5 HA = assay type: binding, influenza A; conditions: read-out: affinity
H7 HA = assay type: binding, influenza A; conditions: read-out: affinity
H9 HA = assay type: binding, influenza A; conditions: read-out: affinity
[1] = biological target: H1N1 A/CA/07/09 (H1 Calif/07/09) HA; assay type: binding, influenza A
[2] = biological target: H5N1 A/VN/1204 (H5 Vietnam/1203/2004) HA; assay type: binding, influenza A
H1N1 A/CA/07/09 = test: MDCK monolayer microneutralization assay; assay type: cell-based, influenza A
H5N1 A/VN/1204 = assay type: cell-based, influenza A
H2N2 A/Mallard/MN/2008 = assay type: cell-based, influenza A
H9N2 Mallard/MN/98 = assay type: cell-based, influenza A
H1N1 [3] = assay type: cell-based, influenza A
H7N3 = assay type: cell-based, influenza A
H5N1 [4] = assay type: cell-based, influenza A
H9N2 = assay type: cell-based, influenza A
H1N1 [5] = test system: H1N1; design: species or system mice; conditions: mouse, in vivo
H5N1 [6] = test system: H5N1; design: species or system mice; conditions: mouse, in vivo
[7] = test system: virus 10 times the LD50 delivered intranasally; test: Prophylaxis in mice, potency (EC50); assay type: in vivo; conditions: single intraperitoneal dose at Day -1, virus at Day 0
H1N1: A/CA/04/09 = test system: H1N1: A/CA/04/09; design: species or system mice; conditions: mouse, in vivo, ip, 10 mg/kg
[8] = test system: H5N1: A/Vietnam/1203/04/HPAI; design: species or system mice; conditions: mouse, in vivo, ip, 10 mg/kg
[9] = test system: H1N1 Influenza A/Ca/04/09; test: Comparison to treatment with Tamiflu in infected mice; assay type: in vivo
A/Ca/04/09 (H1N1) = test: In vivo efficacy, treatment at Day 2; design: species or system mice; conditions: IP at Day 2, 10 mg/kg (mixture 10 mg/kg each), FIGS. 6A, 6C
Philippines 2/82 = test system: Philippines 2/82; design: species or system mice; conditions: mouse, in vivo
[10] = biological target: HA of clades spanning Group 1; test: Standard FortéBio assay (FIG. 3A); assay type: binding, influenza A; conditions: Group 1, FIG. 3A
HA1 = test: Binding to HA1; design: species or system influenza A

B1: MAB53 (antibody, V domains shown)
VH: QVQLVQSGAEVRKPGSSVKVSCKVSGGIIRKYAINWVRQAPGQGLEWMGGIIAIFNTANYAQKFQGRVTITADESTSTVYMELSSLRSEDTALYYCARGMNYYSDYFDYWGQGSLVTVSP
VL: EIVLTQSPGTLSLSPGERATLSCRASQSVRSNNLAWYQHKPGQAPRLLIFGASSRATGIPDRFSGSGSGTDFTLTISRLEPEDFAVYYCQQYGSSPALTFGGGTKVEIK
modifications: CHAIN (1)...(120) MAB53 heavy chain sequence of variable domain; DOMAIN (31)...(35) CDR1; DOMAIN (50)...(66) CDR2; DOMAIN (99)...(110) CDR3; CHAIN (1)...(109) MAB53 light chain sequence; DOMAIN (24)...(35) CDR1; DOMAIN (51)...(57) CDR2; DOMAIN (90)...(98) CDR3
H1 HA
  Kd: 60 pM
H5 HA
  Kd: 6000 pM
H7 HA
  Kd: 70 pM
H9 HA
  Kd: 30 pM
[1]
  Kd: 100 pM
[2]; read-out: Affinity by FortéBio
  Kd: 500 pM
[2]; read-out: KD
  Kd: 500 pM
H1N1 A/CA/07/09; MAB53 vs CR6261 EC50, H1N1 A/CA/07/09
  Potency Difference: 30x
H1N1 A/CA/07/09; in vitro neutralization, H1N1 A/CA/07/09
  EC50: 0.14 µg/mL
H5N1 A/VN/1204
  EC50: 0.10 µg/mL
  Potency Difference: 40x
H2N2 A/Mallard/MN/2008
  EC50: 1.20 µg/mL
H9N2 Mallard/MN/98
  EC50: 0.10 µg/mL
H1N1 [3]
  low doses that neutralized infection: 1 to 5 µg/mL
H7N3
  low doses that neutralized infection: 1 to 5 µg/mL
H5N1 [4]
  low doses that neutralized infection: 1 to 5 µg/mL
H9N2
  low doses that neutralized infection: 1 to 5 µg/mL
H1N1 [5]
  survival: 90% and 50%
H5N1 [6]
  survival: 80% and 60% and 50%
[7]
  EC50 (prophylaxis potency): 0.4 mg/kg
H1N1: A/CA/04/09
  therapeutic effectiveness (survival): fully effective
[8]
  therapeutic effectiveness (survival): fully effective
[9]; 10 mice per group, treatment from Day +1, to Day 14
  survival: eight of the ten mice survived past Day 8 to Day 14
[9]; by Day 14
  weight relative to original weight (in words): the original weight was exceeded
[9]; treatment from Day +1
  day at which decline in weight was reversed: 4 days
A/Ca/04/09 (H1N1)
  protection / survival: protective
Philippines 2/82
  protection / survival: resulted in death after 10 days
[10]
  affinity across clades (in words): sub-nM affinity
HA1
  binding to HA1: does not bind HA1
